Data from patent US9999679B2, “Aminofucoidan as a vector for fibrinolysis in thrombotic diseases” (INSTITUT NATIONAL DE LA SANTE ET DE LA RECHERCHE MEDICALE, priority 2013, dated 2018).

Legend:
platelet-poor thrombus = assay: Ex vivo fibrinolysis of platelet-poor plasma clots (fluorescence release, clot weight loss); design: species or system Human
Protocol: (§1) Human platelet-rich and -poor plasma (PRP and PPP) were obtained from citrated blood after two centrifugation steps: at 120 g for 15 minutes followed by a second centrifugation step at 1200 g for 12 min. PRP was adjusted to 3×10^8 platelets per mL with poor platelet plasma (PPP) and supplemented with 75 μg/mL of fluorescein isothiocyanate-fibrinogen. Clot formation was induced by adding 10 mmol/L CaCl2 in glass tubes and incubated for 1 hour at 37° C. After retraction, clots were washed in Hank's buffer (Sigma), rapidly dryed on an absorbent paper and weighed. To assess fibrinolysis, PRP or PPP clots were incubated in Hanks' buffer containing the vectorized t-PA complexes (corresponding to 10 UI of t-PA, or 1.72 μg/mL) for 1 h at room temperature. Clots were transferred in a new eppendorf containing 500 μl of Hank's buffer supplemented with 1 μM of human plasminogen. The kinetic of fibrinolysis was evaluated by measuring the release of fluorescence from the clot to the supernatant with a spectrofluorimeter (485/520 nm). […]
(§2) Aminofucoidans were used in variables molecular ratio to t-PA (10 UI (corresponding to 1.72 μg/ml): the 1/10 ratio was used for mono-amine fucoidans and 1/5 for poly-amine fucoidans. Evaluation criteria were the initial lysis kinetic (appearance of fluorescence in supernatant) and the final thrombus weight loss at 17H/37° C. incubation. […]

mesenteric thrombi = assay: FeCl3-induced mesenteric vessel thrombosis, intravital imaging of thrombolysis; type: in vivo; conditions: mice, intravenous; 1 hour following FeCl3-induced injury (~45 min following treatment)
Excerpt: The group has recently published the ability of intravital microscopy to follow the lysis of thrombus in vivo. Thus, validation of t-PA vectorization by amino-fucoidans with intravital microscopy has been carried out according to the protocols described in Boulaftali et al. (Boulaftali et al., 2011, Platelet protease nexin-1, a serpin that strongly influences fibrinolysis and thrombolysis. Circulation; Boulaftali et al., 2012, The mouse dorsal skinfold chamber as a model for the study of thrombolysis by intravital microscopy. Thromb Haemost).
The thrombus is induced by local application of iron oxide on exposed vessels in mice. Fluorescent t-PA or a mixture of amino-fucoidans and t-PA are intravenously injected after iron oxide local application The fluorescence of t-PA and thrombus lysis were followed by intravital transillumination of the mesenteric tissue.
More precisely, after anesthesia (100 mg/kg ketamine, 10 mg/kg xylazine) and laparotomy, mouse mesenteric vessels were exposed for induction of thrombosis and video-microscopic intravital observation. […] Platelet deposition and thrombus growth were monitored for 15 minutes following injury and fluorescent t-PA±DiLysine-fucoidan was then injected intravenously to thrombolysis of the partially occlusive-formed thrombi. […]

[1] = Product No 173 from American diagnostic; cited from earlier work
[2] = tested on: thrombus performed in total blood, including Red Blood Cells; assay: Rotative thromboelastography (Rotem) lysis of thrombus in total blood; conditions: plasma PAI-1 present, ratio (t-PA/fuco) 1/5 or 1/10
Excerpt: Thromboelastography experiments have been carried out on a rotative thromboelastograph (Rotem®) as described in Boulaftali et al. (Boulaftali Y, Ho Tin Noe B, Pena A, Loyau S, Venisse L, Francois D, Richard B, Arocas V, Collet J P, Jandrot-Perrus M, Bouton M C. PLatelet Protease Nexin-1, a Serpin that Strongly Influences Fibrinolysis and Thrombolysis. Circulation. 2011; 123:1326-1334) and Mallet et al. (Mallet S V, Cox D J A. Thromboelastograph Analysis. British J of anaest. 1992; 69:307-313).
In a third series of in vitro experiments, the ability of aminofucoidans to accelerate the lysis of a thrombus performed in total blood, including Red Blood Cells, has been tested with rotative thromboelastography (Rotem®). In this experiment dilysine-fucoidan vectorized t-PA, in a ratio (t-PA/fuco) of 1/5 or 1/10 increased the thrombus lysis to 75% as compared to t-PA alone (55%). In this experiment, the plasma PAI-1 was present.

platelet-rich thrombus = assay: Ex vivo fibrinolysis of platelet-rich plasma clots (fluorescence release, clot weight loss); design: species or system Human; conditions: 17H/37° C. incubation; p<0.01; FIG. 1
Protocol: as §1, §2

B1: t-PA: Single-chain recombinant tissue plasminogen activator, secreted by CHO cells transfected with human t-PA cDNA (American diagnostica) (protein, listed as Homo sapiens)
chain: MDAMKRGLCCVLLLCGAVFVSPSQEIHARFRRGARSYQVICRDEKTQMIYQQHQSWLRPVLRSNRVEYCWCNSGRAQCHSVPVKSCSEPRCFNGGTCQQALYFSDFVCQCPEGFAGKCCEIDTRATCYEDQGISYRGTWSTAESGAECTNWNSSALAQKPYSGRRPDAIRLGLGNHNYCRNPDRDSKPWCYVFKAGKYSSEFCSTPACSEGNSDCYFGNGSAYRGTHSLTESGASCLPWNSMILIGKVYTAQNPSAQALGLGKHNYCRNPDGDAKPWCHVLKNRRLTWEYCDVPSCSTCGLRQYSQPQFRIKGGLFADIASHPWQAAIFAKHRRSPGERFLCGGILISSCWILSAAHCFQERFPPHHLTVILGRTYRVVPGEEEQKFEVEKYIVHKEFDDDTYDNDIALLQLKSDSSRCAQESSVVRTVCLPPADLQLPDWTECELSGYGKHEALSPFYSERLKEAHVRLYPSSRCTSQHLLNRTVTDNMLCAGDTRSGGPQANLHDACQGDSGGPLVCLNDGRMTLVGIISWGLGCGQKDVPGVYTKVTNYLDWIRDNMRP
modifications: single-chain recombinant; /mol_type=“protein” /organism=“Homo sapiens”
Q: For B1, which “thrombi weight loss at 17H” value (platelet-poor thrombus) is on record?
A: The value was 97%.

Q: And the “vessel occlusion / perfusion of injured vessels” value (mesenteric thrombi)?
A: The value was “occlusive thrombosis of injured vessels had occurred in all 3 mice”.

Q: And the specific activity [1]?
A: Its specific activity is “approximately 580 000 UI/mg”.

Q: And the thrombus lysis [2]?
A: Its thrombus lysis is 55%.

Q: What about the “loss of platelet-rich thrombus weight” value (platelet-rich thrombus) of the same molecule?
A: The value was 30%.
